Source: PMC11018607, “A widely conserved protein Rof inhibits transcription termination factor Rho and promotes Salmonella virulence program” (Nature Communications, 2024)

Biological target: T1, Transcription termination factor Rho (E. coli) (E. coli, UniProt P0AG30 1-419)
T1 construct: Transcription termination factor Rho, E. coli, expressed from pET24b-rho; no tag is mentioned; In the cryo-EM map density was absent for residues 280-284; also called EcRho; Rho hexamer; source: E. coli BL21(DE3) carrying pET24b-rho, purified (HiTrap Q, heparin, Superdex 200)
Experiment: SEC; gel filtration of the complex assembled by mixing purified Rho and Rof at a ratio of 1:1
Details: both partners purified

T1 sequence (P0AG30 whole entry, the tested form may be a part): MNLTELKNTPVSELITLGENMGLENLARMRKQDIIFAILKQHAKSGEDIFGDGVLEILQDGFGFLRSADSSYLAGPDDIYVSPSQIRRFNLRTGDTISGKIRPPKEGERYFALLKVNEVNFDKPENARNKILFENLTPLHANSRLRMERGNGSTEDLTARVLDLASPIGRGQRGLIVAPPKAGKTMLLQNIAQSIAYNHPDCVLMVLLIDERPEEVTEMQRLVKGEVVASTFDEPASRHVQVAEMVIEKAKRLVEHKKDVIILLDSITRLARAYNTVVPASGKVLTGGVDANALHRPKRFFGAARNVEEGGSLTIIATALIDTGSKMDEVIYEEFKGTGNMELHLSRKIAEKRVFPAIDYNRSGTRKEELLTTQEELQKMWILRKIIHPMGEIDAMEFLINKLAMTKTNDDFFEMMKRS

B1: Rof (Rho-off, YaeO), E. coli (natural protein)
chain: MNDTYQPINCDDYDNLELACQHHLMLTLELKDGEKLQAKASDLVSRKNVEYLVVEAAGETRELRLDKITSFSHPEIGTVVVSES
notes: Protein Rof (YaeO), E. coli, expressed from pET22b-rof; In the cryo-EM map density was absent for Rof residues 1-5; No removal of the tag is described; also called EcRof; source: E. coli BL21(DE3) transformed with pET22b-rof, purified (Ni-NTA, Superdex 200)
binding result: binds
